# Laboratory results: paper PMC9273970, “Mambalgin-2 Inhibits Lung Adenocarcinoma Growth and Migration by Selective Interaction With ASIC1/α-ENaC/γ-ENaC Heterotrimer” (Frontiers in Oncology, 2022)
# What was measured:
# [1] = target: ASIC1a subunit (acid-sensing ion channel 1a) (human (endogenous in A549))
# [2] = target: human heteromeric ASIC1a/α-ENAC/γ-ENAC channel (human, UniProt P78348 1-528; P37088 1-669; P51170 1-649); assay: cell-based or functional assay
# Sequence of human heteromeric ASIC1a/α-ENAC/γ-ENAC channel (P78348 whole entry, chain 1 of 3): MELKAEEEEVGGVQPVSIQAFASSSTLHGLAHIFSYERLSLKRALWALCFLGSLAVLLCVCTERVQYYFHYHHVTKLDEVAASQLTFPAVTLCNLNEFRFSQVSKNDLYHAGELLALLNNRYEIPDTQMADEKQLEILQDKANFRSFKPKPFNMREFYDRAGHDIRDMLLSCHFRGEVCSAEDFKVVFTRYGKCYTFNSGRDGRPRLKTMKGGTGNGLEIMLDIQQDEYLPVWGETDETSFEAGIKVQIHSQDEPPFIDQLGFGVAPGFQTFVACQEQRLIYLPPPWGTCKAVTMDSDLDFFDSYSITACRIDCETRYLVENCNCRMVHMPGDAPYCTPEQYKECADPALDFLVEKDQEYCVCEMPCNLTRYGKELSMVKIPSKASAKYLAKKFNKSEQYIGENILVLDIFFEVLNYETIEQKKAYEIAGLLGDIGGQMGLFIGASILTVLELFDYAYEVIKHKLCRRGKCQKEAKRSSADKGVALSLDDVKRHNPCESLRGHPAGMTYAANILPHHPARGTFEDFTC
# Sequence of human heteromeric ASIC1a/α-ENAC/γ-ENAC channel (P37088 whole entry, chain 2 of 3): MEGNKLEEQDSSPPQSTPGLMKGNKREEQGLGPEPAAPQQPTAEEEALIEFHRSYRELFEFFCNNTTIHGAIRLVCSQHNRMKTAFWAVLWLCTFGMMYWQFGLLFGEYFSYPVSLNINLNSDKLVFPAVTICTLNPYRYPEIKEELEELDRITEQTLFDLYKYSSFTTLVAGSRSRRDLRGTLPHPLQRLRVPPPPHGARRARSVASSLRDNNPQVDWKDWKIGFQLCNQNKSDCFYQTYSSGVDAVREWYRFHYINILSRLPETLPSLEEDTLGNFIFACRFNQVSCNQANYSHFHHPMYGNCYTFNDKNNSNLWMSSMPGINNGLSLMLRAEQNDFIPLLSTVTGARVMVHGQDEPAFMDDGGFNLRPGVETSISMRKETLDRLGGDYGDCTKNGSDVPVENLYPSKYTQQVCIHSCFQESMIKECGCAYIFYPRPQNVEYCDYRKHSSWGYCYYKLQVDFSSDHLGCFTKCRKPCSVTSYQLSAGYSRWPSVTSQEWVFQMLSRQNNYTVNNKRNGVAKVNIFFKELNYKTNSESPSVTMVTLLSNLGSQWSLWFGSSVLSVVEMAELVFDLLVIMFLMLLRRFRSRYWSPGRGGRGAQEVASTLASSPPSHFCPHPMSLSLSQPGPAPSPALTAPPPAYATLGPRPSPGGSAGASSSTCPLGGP
# Sequence of human heteromeric ASIC1a/α-ENAC/γ-ENAC channel (P51170 whole entry, chain 3 of 3): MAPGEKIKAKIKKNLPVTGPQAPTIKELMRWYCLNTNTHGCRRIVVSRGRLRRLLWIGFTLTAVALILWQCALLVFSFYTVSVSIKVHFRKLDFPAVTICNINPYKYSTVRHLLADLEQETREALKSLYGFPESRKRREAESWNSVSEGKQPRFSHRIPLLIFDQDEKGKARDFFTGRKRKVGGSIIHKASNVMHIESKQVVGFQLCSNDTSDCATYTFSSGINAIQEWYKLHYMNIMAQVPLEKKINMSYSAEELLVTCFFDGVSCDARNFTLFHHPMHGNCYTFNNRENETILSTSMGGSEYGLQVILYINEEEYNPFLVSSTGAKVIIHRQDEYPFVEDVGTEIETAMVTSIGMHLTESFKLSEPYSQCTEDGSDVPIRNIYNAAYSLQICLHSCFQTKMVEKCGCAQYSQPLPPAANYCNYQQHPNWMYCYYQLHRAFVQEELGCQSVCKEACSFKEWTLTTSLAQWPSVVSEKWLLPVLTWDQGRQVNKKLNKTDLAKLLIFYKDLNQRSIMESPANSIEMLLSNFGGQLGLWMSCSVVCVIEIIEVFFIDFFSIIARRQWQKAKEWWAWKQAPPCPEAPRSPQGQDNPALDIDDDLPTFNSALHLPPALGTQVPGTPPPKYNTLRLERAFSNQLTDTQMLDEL
# Sequence of ASIC1a subunit (acid-sensing ion channel 1a) (human (endogenous in A549)) (P78348 whole entry): as the sequence (P78348 whole entry, chain 1 of 3) above
binder,measurement,setting,value
recombinant mambalgin-2 from Dendroaspis polylepis (natural protein) LKCFQHGKVVTCHRDMKFCYHNTGMPFRNLKLILQGCSSSCSETENNKCCSTDRCNK,"inhibition of currents evoked by a pH drop from 7.4 to 5.0 in X. laevis oocytes expressing homomeric hASIC1a (two-electrode voltage clamp, mambalgin-2 0–10 μM, 15 s pre-incubation), IC50",[1],0.59 μM
same,"inhibition of currents evoked by a pH drop from 7.4 to 5.0 in X. laevis oocytes expressing hASIC1a/α-ENAC/γ-ENAC (two-electrode voltage clamp, mambalgin-2 0–10 μM, 15 s pre-incubation), IC50",[2],79 nM
